Columns and labels:
IFNα2a (human) = IFNα2a (human) (UniProt P01563); test: cell-based or functional assay
human leukocyte IFN = test: cell-based or functional assay

Chain of MEDI-545 (VH): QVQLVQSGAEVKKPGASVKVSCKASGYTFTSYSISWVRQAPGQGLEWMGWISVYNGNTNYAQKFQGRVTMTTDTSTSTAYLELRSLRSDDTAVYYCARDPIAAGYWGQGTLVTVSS
Chain of MEDI-545 (VL): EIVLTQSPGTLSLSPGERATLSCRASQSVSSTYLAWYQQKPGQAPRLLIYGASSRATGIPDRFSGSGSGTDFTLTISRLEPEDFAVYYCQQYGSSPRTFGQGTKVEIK

**Q.** What does the source list for R347 (antibody)?
**A.** HERC5 gene expression (Average), 107 IFN + R347 (107 IFN alone 41.12; 107 VEH 1.00) (IFNα2a (human)): 55; HERC5 gene expression (Average), 163 IFN + R3437 (163 IFN alone 75.81; 163 VEH 1.05) (IFNα2a (human)): 95.4; HERC5 gene expression (Average), 175 IFN + R347 (175 IFN alone 74.58; 175 VEH 1.19) (IFNα2a (human)): 98.2; OAS1 gene expression (Average), 107 IFN + R347 (107 IFN alone 15.11; 107 VEH 1.00) (IFNα2a (human)): 17.8; OAS1 gene expression (Average), 163 IFN + R3437 (163 IFN alone 14.19; 163 VEH 0.77) (IFNα2a (human)): 22.4; OAS1 gene expression (Average), 175 IFN + R347 (175 IFN alone 22.09; 175 VEH 1.62) (IFNα2a (human)): 15.2; OAS3 gene expression (Average), 107 IFN + R347 (107 IFN alone 49.04; 107 VEH 1.00) (IFNα2a (human)): 76.9; OAS3 gene expression (Average), 163 IFN + R3437 (163 IFN alone 42.01; 163 VEH 0.49) (IFNα2a (human)): 52.6; OAS3 gene expression (Average), 175 IFN + R347 (175 IFN alone 37.87; 175 VEH 1.27) (IFNα2a (human)): 34.9; RSAD2 gene expression (Average), 107 IFN + R347 (107 IFN alone 109.64; 107 VEH 1.00) (IFNα2a (human)): 107; RSAD2 gene expression (Average), 163 IFN + R3437 (163 IFN alone 71.47; 163 VEH 0.56) (IFNα2a (human)): 115; RSAD2 gene expression (Average), 175 IFN + R347 (175 IFN alone 126.27; 175 VEH 1.88) (IFNα2a (human)): 91

**Q.** Which neutralization of ISG15, USP18 and IFIT2 overexpression in keratinocytes stimulated with 150 I.U./mL leukocyte IFN (human leukocyte IFN) does the source give for MEDI-545 (antibody) here?
**A.** 70 to 100%

**Q.** And the HERC5 gene expression (Average), 107 IFN + 545 (107 IFN alone 41.12; 107 VEH 1.00) (IFNα2a (human))?
**A.** 6.29

**Q.** What about the HERC5 gene expression (Average), 163 IFN + 545 (163 IFN alone 75.81; 163 VEH 1.05) (IFNα2a (human)) of the same substance?
**A.** 7.83

**Q.** And the HERC5 gene expression (Average), 175 IFN + 545 (175 IFN alone 74.58; 175 VEH 1.19) (IFNα2a (human))?
**A.** 6.89

**Q.** And the IFIT1 gene expression, Average (TAQMAN, whole blood + 100 IU IFNα2a + MEDI-545; donor 107; IFN alone 80.21) (relative expression) (IFNα2a (human))?
**A.** 13.1

**Q.** What about the IFIT1 gene expression, Average (TAQMAN, whole blood + 100 IU IFNα2a + MEDI-545; donor 163; IFN alone 51.65) (relative expression) (IFNα2a (human)) of the same substance?
**A.** 7.6

**Q.** And the IFIT1 gene expression, Average (TAQMAN, whole blood + 100 IU IFNα2a + MEDI-545; donor 175; IFN alone 82.98) (relative expression) (IFNα2a (human))?
**A.** 8.4

**Q.** And the IFIT3 gene expression, Average (TAQMAN, whole blood + 100 IU IFNα2a + MEDI-545; donor 107; IFN alone 38.43) (relative expression) (IFNα2a (human))?
**A.** 6.78

**Q.** And the IFIT3 gene expression, Average (TAQMAN, whole blood + 100 IU IFNα2a + MEDI-545; donor 163; IFN alone 25.94) (relative expression) (IFNα2a (human))?
**A.** 4.58

**Q.** What about the IFIT3 gene expression, Average (TAQMAN, whole blood + 100 IU IFNα2a + MEDI-545; donor 175; IFN alone 35.02) (relative expression) (IFNα2a (human)) of the same substance?
**A.** 5.28

**Q.** And the IL6ST gene expression, Average (TAQMAN, whole blood + 100 IU IFNα2a + MEDI-545; donor 107; IFN alone 3.54) (relative expression) (IFNα2a (human))?
**A.** 2.62

**Q.** What about the IL6ST gene expression, Average (TAQMAN, whole blood + 100 IU IFNα2a + MEDI-545; donor 163; IFN alone 7.69) (relative expression) (IFNα2a (human)) of the same substance?
**A.** 4.18

**Q.** What about the IL6ST gene expression, Average (TAQMAN, whole blood + 100 IU IFNα2a + MEDI-545; donor 175; IFN alone 7.62) (relative expression) (IFNα2a (human)) of the same substance?
**A.** 2.95

**Q.** And the IRF7 gene expression, Average (TAQMAN, whole blood + 100 IU IFNα2a + MEDI-545; donor 107; IFN alone 18.53) (relative expression) (IFNα2a (human))?
**A.** 3.42

**Q.** What about the IRF7 gene expression, Average (TAQMAN, whole blood + 100 IU IFNα2a + MEDI-545; donor 163; IFN alone 17.16) (relative expression) (IFNα2a (human)) of the same substance?
**A.** 2.92

**Q.** And the IRF7 gene expression, Average (TAQMAN, whole blood + 100 IU IFNα2a + MEDI-545; donor 175; IFN alone 24.65) (relative expression) (IFNα2a (human))?
**A.** 2.43

**Q.** What about the LY6E gene expression, Average (TAQMAN, whole blood + 100 IU IFNα2a + MEDI-545; donor 107; IFN alone 19.09) (relative expression) (IFNα2a (human)) of the same substance?
**A.** 3.5

**Q.** What about the LY6E gene expression, Average (TAQMAN, whole blood + 100 IU IFNα2a + MEDI-545; donor 163; IFN alone 13.52) (relative expression) (IFNα2a (human)) of the same substance?
**A.** 4.8

**Q.** What about the LY6E gene expression, Average (TAQMAN, whole blood + 100 IU IFNα2a + MEDI-545; donor 175; IFN alone 19.32) (relative expression) (IFNα2a (human)) of the same substance?
**A.** 3.74

**Q.** And the MARCKS gene expression, Average (TAQMAN, whole blood + 100 IU IFNα2a + MEDI-545; donor 163; IFN alone 2.59) (relative expression) (IFNα2a (human))?
**A.** 1.55

**Q.** And the MARCKS gene expression, Average (TAQMAN, whole blood + 100 IU IFNα2a + MEDI-545; donor 175; IFN alone 2.59) (relative expression) (IFNα2a (human))?
**A.** 0.55

**Q.** What about the OAS1 gene expression (Average), 107 IFN + 545 (107 IFN alone 15.11; 107 VEH 1.00) (IFNα2a (human)) of the same substance?
**A.** 3.45

**Q.** And the OAS1 gene expression (Average), 163 IFN + 545 (163 IFN alone 14.19; 163 VEH 0.77) (IFNα2a (human))?
**A.** 3.05

**Q.** And the OAS1 gene expression (Average), 175 IFN + 545 (175 IFN alone 22.09; 175 VEH 1.62) (IFNα2a (human))?
**A.** 4.04

**Q.** And the OAS3 gene expression (Average), 107 IFN + 545 (107 IFN alone 49.04; 107 VEH 1.00) (IFNα2a (human))?
**A.** 7.03

**Q.** And the OAS3 gene expression (Average), 163 IFN + 545 (163 IFN alone 42.01; 163 VEH 0.49) (IFNα2a (human))?
**A.** 14.6

**Q.** And the OAS3 gene expression (Average), 175 IFN + 545 (175 IFN alone 37.87; 175 VEH 1.27) (IFNα2a (human))?
**A.** 3.92

**Q.** And the RAB8B gene expression, Average (TAQMAN, whole blood + 100 IU IFNα2a + MEDI-545; donor 163; IFN alone 2.20) (relative expression) (IFNα2a (human))?
**A.** 1.18

**Q.** What about the RAB8B gene expression, Average (TAQMAN, whole blood + 100 IU IFNα2a + MEDI-545; donor 175; IFN alone 2.63) (relative expression) (IFNα2a (human)) of the same substance?
**A.** 1.15

**Q.** And the RSAD2 gene expression (Average), 107 IFN + 545 (107 IFN alone 109.64; 107 VEH 1.00) (IFNα2a (human))?
**A.** 9.88

**Q.** What about the RSAD2 gene expression (Average), 163 IFN + 545 (163 IFN alone 71.47; 163 VEH 0.56) (IFNα2a (human)) of the same substance?
**A.** 4.39

**Q.** What about the RSAD2 gene expression (Average), 175 IFN + 545 (175 IFN alone 126.27; 175 VEH 1.88) (IFNα2a (human)) of the same substance?
**A.** 8.43

Source: patent publication US20150132313A1
